Experimental data reported in patent US20250082755A1.

Molecular target: CD123 expressed on MOLM13 AML cells (UniProt P26951)
Experiment: cell-based or functional assay

UniProt P26951, sequence (P26951 19-378 limits assumed): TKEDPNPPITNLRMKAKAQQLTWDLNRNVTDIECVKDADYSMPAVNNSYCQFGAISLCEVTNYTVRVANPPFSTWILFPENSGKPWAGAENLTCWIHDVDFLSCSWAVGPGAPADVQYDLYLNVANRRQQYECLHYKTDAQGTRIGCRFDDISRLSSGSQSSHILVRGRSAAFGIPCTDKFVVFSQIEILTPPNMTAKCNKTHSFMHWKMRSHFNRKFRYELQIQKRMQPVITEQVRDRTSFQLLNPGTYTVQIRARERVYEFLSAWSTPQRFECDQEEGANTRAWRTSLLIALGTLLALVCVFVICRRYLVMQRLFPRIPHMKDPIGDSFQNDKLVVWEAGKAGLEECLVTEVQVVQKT

Row | TIB153 % CD69 activation: MOLM-13-WT/MOLM-13 CD123KO | CD69 activation, Average MOLM13-WT fold change over MOLM-CD123KO [fold] | CD69 activation, MOLM13 fold change over MOLM-CD123KO, Replicate 1 [fold] | CD69 activation, MOLM13 fold change over MOLM-CD123KO, Replicate 2 [fold] | Substance
1 | 1.28 |  |  |  | IL3-K110E-41BBcostim (receptor)
2 | 1.03 |  |  |  | IL3-K110E-CD28costim (SEQ ID NO: 29) (receptor)
3 | 1.06 |  |  |  | IL3-K110E-nocostim (SEQ ID NO: 27) (receptor)
4 | 4.74 | 3.84 | 4.74 | 2.94 | IL3-WT-41BBcostim (SEQ ID NO: 25) (receptor)
